In experiment [1] the target is FKBP fused to the N terminus of TRF2 ΔB (FKBP-TRF2 ΔB), Myc-tagged.
Experiment [2] deals with TRF2 (endogenous in HeLa cells) (human (endogenous in HeLa)) (UniProt Q15554). As to the kind of experiment: proximity ligation; Duolink in situ PLA in fixed HeLa cells with anti-TRF2 and anti-histone H3 antibodies; cells scored for 10 or more signals in nuclei.
UniProt Q15554, sequence (Q15554 whole entry): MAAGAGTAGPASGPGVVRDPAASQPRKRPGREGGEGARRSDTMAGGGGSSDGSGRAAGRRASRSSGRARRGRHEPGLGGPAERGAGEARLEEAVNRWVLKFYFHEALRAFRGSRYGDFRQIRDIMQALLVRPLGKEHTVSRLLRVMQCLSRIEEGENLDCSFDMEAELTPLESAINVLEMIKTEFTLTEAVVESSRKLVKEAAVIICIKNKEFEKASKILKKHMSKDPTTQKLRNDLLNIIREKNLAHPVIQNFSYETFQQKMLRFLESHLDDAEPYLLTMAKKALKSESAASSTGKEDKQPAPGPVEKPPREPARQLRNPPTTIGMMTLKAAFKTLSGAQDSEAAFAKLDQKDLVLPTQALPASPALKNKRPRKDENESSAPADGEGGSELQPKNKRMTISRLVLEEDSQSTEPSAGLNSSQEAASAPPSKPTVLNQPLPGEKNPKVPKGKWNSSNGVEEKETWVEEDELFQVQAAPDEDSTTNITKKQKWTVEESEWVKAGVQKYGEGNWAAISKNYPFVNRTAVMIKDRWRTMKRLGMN

In experiment [1], “FRB fused to the C terminus of histone H2B (H2B-FRB), HA-tagged” yielded a generation of t-circles in FKBP-TRF2 ΔB-complemented MEFs expressing H2B-FRB, with A/C dimerizer for 48 h of 50%.

Take “histone H3 (HeLa cells) (from UniProt P68431 1-136) (natural protein)”: in experiment [2], the percent of cells with more than 10 positive Duolink signals was 26 % of cells.

The record behind these values is paper PMC5034068.
